Residue numbers refer to the chain shown, from its start.

Experimental findings from patent US10442866 (BEIJING MABWORKS BIOTECH, dated 2019) are described below.

For assay [1], the target named is T1, human OX40-CD40 fusion protein on HEK-Blue reporter cells (human).
T1 chain: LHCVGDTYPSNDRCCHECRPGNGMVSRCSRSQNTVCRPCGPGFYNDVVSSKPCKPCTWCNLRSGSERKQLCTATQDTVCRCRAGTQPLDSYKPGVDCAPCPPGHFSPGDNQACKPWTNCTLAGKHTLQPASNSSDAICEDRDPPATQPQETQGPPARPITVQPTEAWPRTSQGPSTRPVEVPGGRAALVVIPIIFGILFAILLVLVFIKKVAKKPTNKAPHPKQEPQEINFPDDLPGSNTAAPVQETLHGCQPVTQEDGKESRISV
Nature of the assay: cell-based or functional assay.

Assay [2] has as its target T2, mouse OX40 expressed on HEK293A cells (mouse, UniProt P47741 20-272).
T2 construct: also called HEK293A/muOX40; HEK293A/mouseOX40 cells
T2 sequence: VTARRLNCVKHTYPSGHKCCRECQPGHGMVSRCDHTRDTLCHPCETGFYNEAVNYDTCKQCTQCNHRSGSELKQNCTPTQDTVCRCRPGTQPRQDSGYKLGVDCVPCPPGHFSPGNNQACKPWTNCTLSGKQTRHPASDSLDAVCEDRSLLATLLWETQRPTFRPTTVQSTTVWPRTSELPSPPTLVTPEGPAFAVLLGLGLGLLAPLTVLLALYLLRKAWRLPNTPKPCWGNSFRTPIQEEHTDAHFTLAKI
Nature of the assay: FACS on HEK293A/muOX40 cells. Here is the method: (§1) Briefly, 10^5 HEK293A cells were seeded into each well of the 96-well plates and serially diluted anti-OX40 antibodies were added to the plates. After incubated at 4° C. for 1 hour, plates were washed 3 times with PBST. Then, an APC coupled Goat Anti-Mouse IgG (BioLegen, US, Cat#: 405308) diluted 500× was added to the plates. After incubation at 4° C. for 1 hour, the plates were washed with PBS for 3 times and then cell fluorescence was monitored using a FACS machine (BD).

In assay [3] the target is T3, recombinant human OX40-his (Sino Biological, Cat#:10481-H03H) (human, UniProt P43489 29-214).
T3 construct: bought protein; also called hOX40-his; not shown: His tag
T3 sequence: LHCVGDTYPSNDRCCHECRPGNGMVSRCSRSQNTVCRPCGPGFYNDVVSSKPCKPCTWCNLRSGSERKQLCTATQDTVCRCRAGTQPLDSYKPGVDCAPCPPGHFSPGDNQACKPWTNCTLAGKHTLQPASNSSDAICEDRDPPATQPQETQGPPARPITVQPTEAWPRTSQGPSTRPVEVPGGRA
In words: ELISA, coated hOX40-his. As for the experimental part: (§2) ELISA plates were coated with 500 ng/ml human OX40-his (used in Example 2) at 4° C. overnight. The wells were blocked with 200 µl of blocking buffer (PBS containing 1% BSA, 1% goat serum, 0.05% Tween 20) for 2 hours at room temperature, and then 100 µl of serially diluted anti-OX40 antibodies (starting from 40 µg/ml) were added to each well and incubated for 1 hour at RT. Plates were washed for 3 times with PBST (PBS+0.05% Tween 20), added with Goat-anti-mouse IgG-HRP (Simga, US, Cat#: A9309-1 ml) diluted 5000×, and incubated for 1 hour at RT. Plates were developed with freshly prepared Ultra-TMB (BD, US, Cat#: 555214) for 5 minutes at RT. Absorbance was read on a SpectraMax® i3× (Molecular Devies, US) at 450 nm.

In assay [4] the target is T4, rhesus OX40 expressed on HEK293A cells (rhesus, UniProt P43489 29-277 (human entry)).
T4 construct: also called HEK293A/rhOX40; HEK293A/rhesusOX40 cells
T4 chain: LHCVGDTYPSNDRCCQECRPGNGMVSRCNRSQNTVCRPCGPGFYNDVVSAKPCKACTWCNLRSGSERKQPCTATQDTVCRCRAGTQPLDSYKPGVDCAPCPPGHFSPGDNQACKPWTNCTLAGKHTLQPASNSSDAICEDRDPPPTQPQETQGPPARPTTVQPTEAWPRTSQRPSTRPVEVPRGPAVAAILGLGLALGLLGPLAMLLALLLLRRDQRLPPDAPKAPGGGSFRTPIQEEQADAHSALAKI
In words: FACS on HEK293A cells. As for the experimental part:
as §1

Assay [5] concerns the target T5, human OX40 expressed on HEK293A cells (human, UniProt P43489 29-277).
T5 construct: also called HEK293A/huOX40; HEK293A/human OX40 cells
T5 sequence: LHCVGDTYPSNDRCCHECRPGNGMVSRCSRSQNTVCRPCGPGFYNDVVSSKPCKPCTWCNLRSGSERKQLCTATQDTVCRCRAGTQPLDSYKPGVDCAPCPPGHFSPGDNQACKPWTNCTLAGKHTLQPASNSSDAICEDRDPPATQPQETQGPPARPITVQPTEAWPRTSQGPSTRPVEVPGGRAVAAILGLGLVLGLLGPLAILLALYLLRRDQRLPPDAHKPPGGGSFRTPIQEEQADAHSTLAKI
Nature of the assay: FACS on HEK293A cells. Here is the method:
as §1

In assay [6] the target is T6, murine OX40-His (Crown, Cat#: E3350-B1707) (mouse, UniProt P47741 20-211).
T6 construct: bought protein; also called mouse OX40-his; muOX40-his; not shown: His tag
T6 sequence: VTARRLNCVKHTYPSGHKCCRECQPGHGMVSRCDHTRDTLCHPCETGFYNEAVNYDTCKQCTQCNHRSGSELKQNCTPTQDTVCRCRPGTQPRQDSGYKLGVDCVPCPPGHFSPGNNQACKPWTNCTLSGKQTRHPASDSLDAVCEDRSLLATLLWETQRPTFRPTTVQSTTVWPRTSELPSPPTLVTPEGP
Nature of the assay: ELISA, coated muOX40-his.

Assay [7] addresses T7, recombinant rhesus OX40-his (Sino Biological, Cat#:90846-C08H) (rhesus monkey, UniProt P43489 29-214 (human entry)).
T7 construct: bought protein; also called monkey OX40-his; rhOX40-his; not shown: His tag
T7 chain: T3 sequence with H16Q, S29N, S50A, P55A, L70P, A145P, I159T, G173R, G183R, R185P
In words: ELISA, coated rhOX40-his. Here is the method:
as §2
Species-cross-reactivity of the 33 OX40 mAbs to monkey or mouse OX40 was further assessed by direct ELISA. Briefly, 500 ng/ml monkey OX40-his or mouse OX40-his (used in Example 2) was coated on 96-well ELISA plates followed by incubation with 100 µl of serially diluted anti-OX40 antibodies (starting from 40 µg/ml). Goat anti-mouse IgG (Sigma, US, Cat#:A9309-1 ml) conjugated with HRP was used then.

The target in assay [8] is T6, murine OX40-His (Crown, Cat#: …). In words: ELISA on coated mouse OX40-His, OD450.
The target in assay [9] is T4, rhesus OX40 expressed on HEK293A cells. Nature of the assay: FACS on HEK293A/rhOX40 cells.
In assay [10] the target is T3, recombinant human OX40-his (Sino …). In words: SPR Biacore 8K, OX40-His on chip, antibody injected. Here is the method: SPR assays were used to determine the binding affinity of the chimetic or humanized anti-OX40 antibodies to human OX40 with the BIAcore™ 8K instrument (GE Life Sciences). Briefly, 100-200 response units (RU) of human OX40-His protein (Sino Biological, CN, Cat#:10481-H03H, Lot no.: MA08MA3003) were coupled to CM5 biosensor chips (Cat#: BR-1005-30, GE Life Sciences), followed by blocking of un-reacted groups with 1M ethanolamine. Serially diluted antibodies at concentrations ranging from 0.3 µM to 10 µM were injected into the SPR running buffer (HBS-EP buffer, pH7.4, GE Life Sciences; US; Cat#:BR-1006-69) at 30 µL/minute. The binding capacitity was calculated with the RUs of blank controls subtracted. The association rate (k_a) and dissociation rate (k_d) were calculated using the one-to-one Langmuir binding model (BIA Evaluation Software, GE Life Sciences). The equilibrium dissociation constant K_D was calculated as the k_d/k_a ratio.

For assay [11] the target is unchanged. Nature of the assay: ELISA on coated human OX40-His, OD450.
The target in assay [12] is T5, human OX40 expressed on HEK293A cells. In words: FACS on HEK293A/huOX40 cells.
Assay [13] concerns the target T7, recombinant rhesus OX40-his (Sino …). In words: ELISA on coated rhesus OX40-His, OD450.
Assay [14] concerns the target T6, murine OX40-His (Crown, Cat#: …). In words: ELISA on coated mouse OX40-His, OD450. The source holds these as a separate data set.

B1: 6A12 (murine monoclonal antibody) (antibody, V domains shown)
VH: QVQLQQSGPELVKPGASVKISCKASGYAFSSSWMNWVKQRPGKGLEWIGRIYPGDGITNYNGNFKGKATLTADKSSSTAYMQLSGLTSADSAVYFCAREFIPLGWGTGTTVTVSS
VL: DIVMTQTPFSNPVTLGTSASISCRSSKSLLHSNGITYLYWYLQKPGQSPQLLIYQMSNLASGVPDRFSSSGSGTDFTLRISRVEAEDVGVYYCAQNLELPWTFGGGTKLEIK
On to B1, for which the “EC50, agonistic activity in HEK-Blue assay” value (“EC50, agonistic activity” below) in assay [1] turned out to be 0.274 µg/mL. In addition, the binding result in assay [2] is given as “no binding”; in assay [6], “no binding (tested: serial dilution from 40 µg/ml)”. Also, the EC50 came to 0.0415 µg/mL in assay [3], 0.253 µg/mL in assay [4], 0.406 µg/mL in assay [5] and 0.05 µg/mL in assay [7].

B2: 68C8 (murine monoclonal antibody) (antibody, V domains shown)
VH: QVQLQQSGAELVKPGASVKMSCKASGDTFTSYWITWVKQRPGQGLEWIGDIHPGSGSTNNNEKFKNKATLTVDTSSSTAYMQLSSLTSEDSAVYYCAKLRPYYFVYWGQGTTLTVSS
VL: DIQMTQTTSSLSASLGDRVTISCRASQDISNYLNWYQQKPDGTVKLLIYYTSRLLSGVPSRFSGSGSGTDYSLTISNLEQEDIATYFCQQGNTLPLTFGAGTRLELK
For the molecule B2, the “EC50, agonistic activity” value in [1] was found to be 0.0866 µg/mL. Further, the binding result in assay [2] was “no binding”; in assay [6], “no binding (tested: serial dilution from 40 µg/ml)”. The EC50 is 0.0483 µg/mL in assay [3], 0.095 µg/mL in [4], 0.113 µg/mL in [5] and 0.06 µg/mL in [7].

B3: chimeric antibody 71H8 (antibody, human IgG1, kappa, V domains shown)
VH: B2 VH with D27Y, H52Y, N60Q, N66S
VL: DIQMTQTPSSLSASLGDRVTISCRASQDISNYLNWYQQKPDGTVKLLIYYTSRLLSGVPSRFSGSGSGTDYSLTISNLEQEDIATYFCQQGNTLPLTFGAGTKLELKR
notes: mouse variable regions with human IgG1/kappa constant regions
In the case of B3, the binding result in assay [8] is “no binding (tested: 10000 ng/ml (log 4))”. Besides, the response in assay [9] was half-maximal at 0.151 µg/mL (EC50). In assay [10], the Kd was 0.158 nM, the koff was found to be 8.28e-05 s⁻¹ and the kon came out at 525000 M⁻¹ s⁻¹. Besides, in [11], the “EC50 (read off the curve)” value is ~0.003 µg/mL. In [12], this molecule registered an EC50 of 0.144 µg/mL. In addition, the “EC50 (read off the curve)” value in assay [13] is ~0.003 µg/mL.

B4: chimeric antibody 68C8 (antibody, human IgG1, kappa, V domains shown)
VH: B2 VH
VL: B3 VL with P8T, K103R
notes: as for B3
In the case of B4, the binding result in assay [14] is “no binding (tested: 10000 ng/ml (log 4))”. Moreover, in assay [9], the EC50 stood at 0.0806 µg/mL. Also, in assay [10], the Kd was found to be 0.187 nM, the koff amounted to 7.35e-05 s⁻¹ and the association rate constant (kon) was 393000 M⁻¹ s⁻¹. The EC50 in [12] worked out at 0.134 µg/mL.

B5: 71H8 (murine monoclonal antibody) (antibody, V domains shown)
VH: B2 VH with D27Y, H52Y, N60Q, N66S
VL: B2 VL with T8P, R103K
B5: the “EC50, agonistic activity” value in assay [1] was 0.0494 µg/mL. In addition, the binding result is on record as “no binding” in [2] and “no binding (tested: serial dilution from 40 µg/ml)” in assay [6]. For the same molecule, the EC50 amounted to 0.052 µg/mL in [3], 0.126 µg/mL in assay [4], 0.113 µg/mL in assay [5] and 0.0501 µg/mL in assay [7].
